Article PMC3112237 (Journal of virology, 2011)

B1: recombinant Ad3 fiber knob S5/Kn (five shaft motifs and the knob domain) (domain or fragment)
chain: GSLQLKVGSGLTVDTTDGSLEENIKVNTPLTKSNHSINLPIGNGLQIEQNKLCSKLGNGLTFDSSNSIALKNNTLWTGPKPEANCIIEYGKQNPDSKLTLILVKNGGIVNGYVTLMGASDYVNTLFKNKNVSINVELYFDATGHILPDSSSLKTDLELKYKQTADFSARGFMPSTTAYPFVLPNAGTHNENYIFGQCYYKASDGALFPLEVTVMLNKRLPDSRTSYVMTFLWSLNAGLAPETTQATLITSPFTFSYIREDD
B2: recombinant Ad3 fiber knob S4/Kn (four shaft motifs and the knob domain) (domain or fragment)
chain: LEENIKVNTPLTKSNHSINLPIGNGLQIEQNKLCSKLGNGLTFDSSNSIALKNNTLWTGPKPEANCIIEYGKQNPDSKLTLILVKNGGIVNGYVTLMGASDYVNTLFKNKNVSINVELYFDATGHILPDSSSLKTDLELKYKQTADFSARGFMPSTTAYPFVLPNAGTHNENYIFGQCYYKASDGALFPLEVTVMLNKRLPDSRTSYVMTFLWSLNAGLAPETTQATLITSPFTFSYIREDD
B3: recombinant Ad3 fiber knob S2/Kn (two shaft motifs and the knob domain) (domain or fragment)
chain: NKLCSKLGNGLTFDSSNSIALKNNTLWTGPKPEANCIIEYGKQNPDSKLTLILVKNGGIVNGYVTLMGASDYVNTLFKNKNVSINVELYFDATGHILPDSSSLKTDLELKYKQTADFSARGFMPSTTAYPFVLPNAGTHNENYIFGQCYYKASDGALFPLEVTVMLNKRLPDSRTSYVMTFLWSLNAGLAPETTQATLITSPFTFSYIREDD
B4: recombinant Ad3 fiber knob S3/Kn (three shaft motifs and the knob domain) (domain or fragment)
chain: HSINLPIGNGLQIEQNKLCSKLGNGLTFDSSNSIALKNNTLWTGPKPEANCIIEYGKQNPDSKLTLILVKNGGIVNGYVTLMGASDYVNTLFKNKNVSINVELYFDATGHILPDSSSLKTDLELKYKQTADFSARGFMPSTTAYPFVLPNAGTHNENYIFGQCYYKASDGALFPLEVTVMLNKRLPDSRTSYVMTFLWSLNAGLAPETTQATLITSPFTFSYIREDD
B5: recombinant Ad3 fiber knob S6/Kn (six shaft motifs and the knob domain) (domain or fragment)
chain: GVLSLKCVNPLTTASGSLQLKVGSGLTVDTTDGSLEENIKVNTPLTKSNHSINLPIGNGLQIEQNKLCSKLGNGLTFDSSNSIALKNNTLWTGPKPEANCIIEYGKQNPDSKLTLILVKNGGIVNGYVTLMGASDYVNTLFKNKNVSINVELYFDATGHILPDSSSLKTDLELKYKQTADFSARGFMPSTTAYPFVLPNAGTHNENYIFGQCYYKASDGALFPLEVTVMLNKRLPDSRTSYVMTFLWSLNAGLAPETTQATLITSPFTFSYIREDD
B6: recombinant Ad3 fiber knob S/Kn (one shaft motif and the knob domain) (domain or fragment)
chain: NSIALKNNTLWTGPKPEANCIIEYGKQNPDSKLTLILVKNGGIVNGYVTLMGASDYVNTLFKNKNVSINVELYFDATGHILPDSSSLKTDLELKYKQTADFSARGFMPSTTAYPFVLPNAGTHNENYIFGQCYYKASDGALFPLEVTVMLNKRLPDSRTSYVMTFLWSLNAGLAPETTQATLITSPFTFSYIREDD
B7: Ad3-E/S/Kn (His tag, E-coil dimerization domain, flexible linker, one shaft motif, Ad3 fiber knob) (designed binder)
chain: EVSALEKEVSALEKEVSALEKEVSALEKEVSALEKGSGGGSGGGSGGGSNSIALKNNTLWTGPKPEANCIIEYGKQNPDSKLTLILVKNGGIVNGYVTLMGASDYVNTLFKNKNVSINVELYFDATGHILPDSSSLKTDLELKYKQTADFSARGFMPSTTAYPFVLPNAGTHNENYIFGQCYYKASDGALFPLEVTVMLNKRLPDSRTSYVMTFLWSLNAGLAPETTQATLITSPFTFSYIREDD
B8: Ad3-K/S/Kn (His tag, K-coil dimerization domain, flexible linker, one shaft motif, Ad3 fiber knob) (designed binder)
chain: KVSALKEKVSALKEKVSALKEKVSALKEKVSALKEGSGGGSGGGSGGGSNSIALKNNTLWTGPKPEANCIIEYGKQNPDSKLTLILVKNGGIVNGYVTLMGASDYVNTLFKNKNVSINVELYFDATGHILPDSSSLKTDLELKYKQTADFSARGFMPSTTAYPFVLPNAGTHNENYIFGQCYYKASDGALFPLEVTVMLNKRLPDSRTSYVMTFLWSLNAGLAPETTQATLITSPFTFSYIREDD
modifications: biotinylated (sites not given) only where it was immobilised on streptavidin (Fig. 5A)

Target: the molecule itself
Assay: SDS-PAGE of unboiled samples with Western blot
In the case of B1, the “stoichiometry N” value is reported as 3.
In the case of B2, the “stoichiometry N” value is reported as 3.
With B3 the “stoichiometry N” value was 3.
In the case of B4, the “stoichiometry N” value is reported as 3.
In the case of B5, the “stoichiometry N” value is reported as 3.
B6 was tested, and the “stoichiometry N” value was 3.

Target: the molecule itself
Assay: SDS-PAGE of unboiled samples, Coomassie stain
For B7, the “stoichiometry N” value was 3.
With B8 the “stoichiometry N” value was 3.
